Test results published in publication doi:10.1101/2022.07.10.499479.
Where two headings read alike, the source gives them in different places.

Tests used:
[1] = target: membrane-anchored iLID (improved Light Induced Dimerization protein with an N-terminal TatA-derived transmembrane helix) (Avena sativa); assay: 3D single-molecule tracking in live cells
[2] = target: membrane-anchored iLID (improved Light Induced Dimerization protein with an N-terminal TatA-derived transmembrane helix) (Avena sativa)
[3] = target: membrane-anchored iLID (improved Light Induced Dimerization protein with an N-terminal TatA-derived transmembrane helix) (Avena sativa); assay: 3D single-molecule tracking in live cells; remark: listed apart in the source
[4] = target: membrane-anchored iLID (improved Light Induced Dimerization protein with an N-terminal TatA-derived transmembrane helix) (Avena sativa); remark: listed apart in the source
[5] = target: membrane-anchored iLID (improved Light Induced Dimerization protein with an N-terminal TatA-derived transmembrane helix) (Avena sativa); assay: 3D single-molecule tracking in live cells; remark: listed apart in the source
[6] = target: membrane-anchored iLID (improved Light Induced Dimerization protein with an N-terminal TatA-derived transmembrane helix) (Avena sativa); assay: 3D single-molecule tracking in live cells; remark: listed apart in the source

fraction slowly diffusing (iLID-associated) [1] [%]	fraction of molecules at the membrane [2] [%]	fraction slowly diffusing (iLID-associated) [3] [%]	median bound time t (bound) [4] [ms]	Kd [1] [nM]	fold increase in affinity upon 488 nm illumination against before [1] [fold]	fraction iLID-associated [1] [%]	fraction iLID-associated [5] [%]	fraction iLID-associated [6] [%]	Substance
48	> 80	56	350	–	–	–	–	–	SspB_(nano)-Halo labelled with JFX549
–	–	–	300	510	2	45	31	48	SspB_(micro)-Halo labelled with JFX549
–	–	–	175	–	–	7	6	–	SspB_(milli)-Halo labelled with JFX549
